In paper PMC4294675 (Molecular Biology of the Cell, 2015) one finds Kd data, which are given here for three molecules.

What is called Kd is the constant that tells how readily two partners part at equilibrium. A lower Kd goes with a tighter complex.

What all share (experiment): other fluorescence titration
For test [1], the target named is ScPFY(9-Mut) (Saccharomyces cerevisiae) (UniProt P07274).
For test [2], the target named is budding yeast profilin ScPFY (wild type) (Saccharomyces cerevisiae) (UniProt P07274).
Test [3] has as its target fission yeast profilin SpPRF (S. pombe) (UniProt P39825).
For test [4], the target named is T1, Cdc12(FH1) (fission yeast, UniProt Q10059 740-972).
T1 sequence: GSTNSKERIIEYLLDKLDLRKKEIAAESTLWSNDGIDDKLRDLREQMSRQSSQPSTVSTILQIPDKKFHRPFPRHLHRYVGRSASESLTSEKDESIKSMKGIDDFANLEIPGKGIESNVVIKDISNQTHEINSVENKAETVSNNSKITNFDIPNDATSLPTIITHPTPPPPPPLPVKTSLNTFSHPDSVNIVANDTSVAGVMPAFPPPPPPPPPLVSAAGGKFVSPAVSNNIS

Sequence of fission yeast profilin SpPRF (S. pombe) (P39825 whole entry): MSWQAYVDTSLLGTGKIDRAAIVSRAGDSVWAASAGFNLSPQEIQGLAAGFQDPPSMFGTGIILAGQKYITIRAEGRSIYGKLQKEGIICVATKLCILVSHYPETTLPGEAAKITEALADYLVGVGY

On to poly-L-proline (peptide), for which the Kd in test [1] is 195 µM; in test [2], 224 µM; in test [3], 59 µM.

B1: Cdc12(FH1) (domain or fragment)
chain: T1 sequence
As for B1, the dissociation constant (Kd) in test [1] is 22.7 µM.

B2: budding yeast profilin ScPFY (wild type) (natural protein)
chain: MSWQAYTDNLIGTGKVDKAVIYSRAGDAVWATSGGLSLQPNEIGEIVQGFDNPAGLQSNGLHIQGQKFMLLRADDRSIYGRHDAEGVVCVRTKQTVIIAHYPPTVQAGEATKIVEQLADYLIGVQY
In turn, B2 had a Kd in test [4] of 24.7 µM.
